Experimental findings from patent US11390894B2, “Biological processes for the production of aryl sulfates” (CysBio ApS, priority 2014, dated 2022) are described below.

Holding throughout (type): cell-based, Escherichia coli
For data set [1], the system named is pHCA. The data set is described as follows: Production of zosteric acid in E. coli from pHCA through heterologous expression of sulfotransferases. The settings on record: culture media; M9 glucose, 0.1 mM IPTG, 0.1 mM pHCA, four days of growth. The text has this:
A range of aryl sulfotransferases including SULT1A1 Rattus norvegicus (SEQ ID NO: 1), SULT1A1 Homo sapiens (SEQ ID NO: 2), SULT1A1 Equus caballus (SEQ ID NO: 3), SULT1A1 Sus scrofa domesticus (SEQ ID NO: 4), SULT1A1 Canis lupus familiaris (SEQ ID NO: 5) and SULT1E1 Gallus gallus domesticus (SEQ ID NO: 6) were expressed in Escherichia coli. […]. The nucleotide sequence of the gene encoding SEQ ID NO: 2 was codon optimized for expression in Escherichia coli (GeneArt, Life Technologies) and amplified by PCR using the primers in Table 1. The pETDuet-1 plasmid was digested with restriction endonucleases Ncol and Sal. The PCR products were then individually cloned into the plasmid pETDuet-1 using the Gibson reaction (New England Biolabs). The resulting plasmids were transformed into BL21(DE3)pLysS (Life Technologies).
(§1) The strains were grown in M9 minimal media containing glucose as a carbon source, and 0.1 mM IPTG for induction of gene expression as well as 0.1 mM p-coumaric acid (pHCA). After four days of growth, samples were withdrawn by filtration and analyzed by HPLC.
(§2) The concentration of p-courmaric acid (pHCA) and zosteric acid in the supernatant was quantified by high performance (HPLC) and compared to chemical standards. HPLC was done on a Thermo setup using a HS-F5 column and mobile phases: 5 mM ammonium formate pH 4.0 (A) and acetonitrile (B) at 1.5 mL min-1, using a gradient elution starting at 5% B. From 0.5 min after injection to 7 min, the fraction of B increased linearly from 5% to 60%, and between 9.5 min and 9.6 the fraction of B decreased back to 5%, and remaining there until 12 min. pHCA and zosteric acid were quantified by measuring absorbance at 277 nm.
Zosteric acid was formed with an aryl sulfotransferase heterologously expressed in a microorganism exemplified by E. coli supplied with the substrate.

The next data set relates to kaempferol. The data set can be described thus: Percent conversion of substrate by E. coli cells expressing sulfotransferases. The settings on record: 87 μM kaempferol, M9 medium, overnight 37° C. Here is the method:
as §2
(§3) Different sulfotransferases were examined for their substrate specificities against three substrates. We tested the sulfotransferases mentioned in example 1, as well as additional ones. The genes encoding these were cloned as described in example 1 using the primers shown in the table below from cDNA libraries of the respective organisms, except for the SULT1A1 from rat (Rattus norvegicus) codon-optimized for E. coli (described above). The resulting vectors were transformed into BL21(DE3)pLysS.
(§4) The resulting strains were grown in M9 medium containing either 100 μM pHCA, 95 μM resveratrol or 87 M kaempferol. The cultures were grown overnight at 37° C., 300 rpm. The following day the supernatants were isolated and examined by HPLC as described in example 1.

Data set [2] relates to pHCA. The data set is described as above. The settings on record: 100 μM pHCA, M9 medium, overnight 37° C. As to the method:
as §2, §3, §4

For a further data set, the system named is resveratrol. Described as above. To be noted: 95 μM resveratrol, M9 medium, overnight 37° C. As to the method: as §2, §3, §4
Data set [3] relates to pHCA. The data set is described as follows: Zosteric acid production in E. coli expressing an aryl sulfotransferase in combination with cysDNC and cysQ. The settings on record: grown as in Example 1 (0.1 mM pHCA). As to the method:
as §1, §2
The plasmid pRSFDuet-1 (Life Technologies) was digested by the restriction endonucleases NdeI and BgIII. The gene cluster was inserted into the digested plasmid using the Gibson reaction (New England Biolabs). […] For the combined expression of cysDNC and cysQ in an artificial operon, cysDNCQ, the two parts were amplified by PCR from E. coli MG1655 chromosomal DNA using the primers shown in Table 3. Again the parts were inserted into the digested plasmid. […] The plasmid expressing SULT1A1 Homo sapiens (SEQ ID NO: 2) from example 1 was co-transformed into E. coli BL21(DE3)pLysS cells (Life Technologies) with either the plasmid expressing cysDNC or cysDNCQ.
Cells were grown as in Example 1 and the supernatants were analyzed for product formation as in example 1. The strain expressing SULT1A1 in combination with cysDNCQ was also grown without the addition of IPTIG for induction.

B1: SULT1E1 Gallus gallus domesticus: aryl sulfotransferase SULT1E1 Gallus gallus domesticus (SEQ ID NO: 6) (protein, listed as Gallus gallus)
chain: MGNDEVIRQDLGCLYDIPLYKCFVAGWPQVEAFQARPDDLLIATYPKSGTTWLSEILDAIYHDGDLEKCRRDAIYNRVPFLEMKAPGILSGVEQLEKIPSPRLVKTHLPVHLLPASFQEKDCKVIYMARNAKDVVISYYYFYQMAKIHPDPGTLSEFLQAFMDGKVAYGSWYKHVKGWWEKRHEKRLLYLFYEDMKKDPRREIQKILQFLGKEVAEETVARILHHTSFQEMKKNPATNYETMPTELMDHSLSPFMRKGISGDWANHFTVAQNERFDQHYQQQMAGSDLCFQMEA
On to B1, for which, in the data set on pHCA [1], the Zosteric acid formed amounted to 0.01 mM and the pHCA remaining turned out to be 0.08 mM. Also, the “percent conversion of kaempferol” value in the data set on kaempferol stood at 47%. Moreover, the “percent conversion of pHCA” value with pHCA [2] amounted to 17%. In addition, the “percent conversion of resveratrol” value in the data set with resveratrol worked out at 100%.

B2: SULT1A1 Sus scrofa domesticus: aryl sulfotransferase SULT1A1 Sus scrofa domesticus (SEQ ID NO: 4) (protein, listed as Sus scrofa)
chain: MEPVQDTYRPPLEYVKGVPLIKYFAEALGPLESFQAWPDDVLISTYPKSGTTWVSEILDLIYQGGDLQKCQRAPIFVRVPFLEFKIPGCPTGFELLKDTPAPRLLKTHLPLALLPQTLLDQKVKVVYVARNAKDVAVSYYHFYRMAKVHPNPGTWDSFLEDFMAGEVSYGSWYQHVQEWWELRHTHPVLYLFYEDMKENPKREIQKILEFVGRSLPEETVEDIVQHTSFQEMKNNAMTNYRTLPSDLLDHSISAFMRKGITGDWKSTFTVAQNERFEADYAEKMAGCNLRFRSEL
In the data set on pHCA [1], B2 displayed a Zosteric acid formed of 0.01 mM and a pHCA remaining of 0.09 mM. Further, in the data set on kaempferol, the “percent conversion of kaempferol” value was determined as 45%. Moreover, the “percent conversion of pHCA” value with pHCA [2] is recorded as 8%. The “percent conversion of resveratrol” value with resveratrol was 88%.

B3: SULT1A1 Equus caballus: aryl sulfotransferase SULT1A1 Equus caballus (SEQ ID NO: 3) (protein, listed as Equus caballus)
chain: MELIQDTSRPPLKYVKGVPLIKYFAEALGPLQSFQARPDDLLISTYPKSGTTWVSEILDMIYHGGDLEKCRRAPIFIRVPFLEFKAPEIPSGVEVLKDTPAPRLLKTHLPLSLLPQTLLDQKVKVVYLARNAKDVAVSYYHFYRMAKVHPDPGTWDSFLEKFMAGEVSYGSWYKHVQEWWELSHTHPVLYLFYEDMKENPKKEIQKILEFVGRSLPEETLDRIVQHTSFKEMKKNPMANYSTIPCDIMDHNISAFMRKGIAGDWKNTFTVAQNEHFDTDYAEKMAGCKLSFRSEV
In the data set on pHCA [1], B3 yielded a Zosteric acid formed of 0.01 mM and a pHCA remaining of 0.09 mM. The “percent conversion of kaempferol” value with kaempferol came to 96%. The “percent conversion of pHCA” value in the data set with pHCA [2] stood at 21%. Further, the “percent conversion of resveratrol” value with resveratrol stood at 100%.

B4: SULT1A1 Canis lupus familiaris: aryl sulfotransferase SULT1A1 Canis lupus familiaris (SEQ ID NO: 5) (protein, listed as Canis lupus)
chain: MEDIPDTSRPPLKYVKGIPLIKYFAEALESLQDFQAQPDDLLISTYPKSGTTWVSEILDMIYQDGDVEKCRRAPVFIRVPFLEFKAPGIPTGLEVLKDTPAPRLIKTHLPLALLPQTLLDQKVKVVYVARNAKDVAVSYYHFYRMAKVHPDPDTWDSFLEKFMAGEVSYGSWYQHVQEWWELSHTHPVLYLFYEDMKENPKREIQKILKFVGRSLPEETVDLIVQHTSFKEMKNNSMANYTTLSPDIMDHSISAFMRKGISGDWKTTFTVAQNERFDADYAKKMEGCGLSFRTQL
As to B4, in the data set on pHCA [1], the Zosteric acid formed was 0.01 mM and the pHCA remaining came to 0.10 mM. Besides, the “percent conversion of kaempferol” value in the data set on kaempferol was determined as 60%. Also, in the data set on pHCA [2], the “percent conversion of pHCA” value is 34%. Besides, the “percent conversion of resveratrol” value in the data set with resveratrol was 61%.

B5: SULT1A1 Homo sapiens: aryl sulfotransferase SULT1A1 Homo sapiens (SEQ ID NO: 2) (protein, listed as Homo sapiens)
chain: MELIQDTSRPPLEYVKGVPLIKYFAEALGPLQSFQARPDDLLISTYPKSGTTWVSQILDMIYQGGDLEKCHRAPIFMRVPFLEFKAPGIPSGMETLKDTPAPRLLKTHLPLALLPQTLLDQKVKVVYVARNAKDVAVSYYHFYHMAKVHPEPGTWDSFLEKFMVGEVSYGSWYQHVQEWWELSRTHPVLYLFYEDMKENPKREIQKILEFVGRSLPEETVDFMVQHTSFKEMKKNPMTNYTTVPQEFMDHSISPFMRKGMAGDWKTTFTVAQNERFDADYAEKMAGCSLSFRSEL
On to B5, for which, in the data set with pHCA [1], the Zosteric acid formed was 0.02 mM and the pHCA remaining turned out to be 0.08 mM. Also, the “percent conversion of kaempferol” value in the data set on kaempferol was 97%. For the same molecule, the “percent conversion of pHCA” value in the data set on pHCA [2] is on record as 39%. Also, the “percent conversion of resveratrol” value in the data set on resveratrol stood at 36%. In the data set with pHCA [3] (induction 0.1 mM IPTG), the Zosteric acid formed is listed as 0.02 mM and the pHCA remaining was 0.08 mM.

B6: SULT1A1 Homo sapiens, CysDNC: SULT1A1 Homo sapiens co-expressed with E. coli cysDNC (ATP sulfurylase and APS kinase) (protein, UniProt P50225 1-295, looked up)
Sulfotransferase 1A1: MELIQDTSRPPLEYVKGVPLIKYFAEALGPLQSFQARPDDLLISTYPKSGTTWVSQILDMIYQGGDLEKCHRAPIFMRVPFLEFKAPGIPSGMETLKDTPAPRLLKTHLPLALLPQTLLDQKVKVVYVARNAKDVAVSYYHFYHMAKVHPEPGTWDSFLEKFMVGEVSYGSWYQHVQEWWELSRTHPVLYLFYEDMKENPKREIQKILEFVGRSLPEETVDFVVQHTSFKEMKKNPMTNYTTVPQEFMDHSISPFMRKGMAGDWKTTFTVAQNERFDADYAEKMAGCSLSFRSEL
modifications: co-expressed with E. coli cysDNC
Regarding B6, in the data set on pHCA [3] (induction 0.1 mM IPTG), the Zosteric acid formed was 0.06 mM and the pHCA remaining came out at 0.06 mM.

B7: SULT1A1 Homo sapiens, CysDNCQ: SULT1A1 Homo sapiens co-expressed with E. coli artificial operon cysDNCQ (plus PAP phosphatase cysQ) (protein, UniProt P50225 1-295, looked up)
Sulfotransferase 1A1: MELIQDTSRPPLEYVKGVPLIKYFAEALGPLQSFQARPDDLLISTYPKSGTTWVSQILDMIYQGGDLEKCHRAPIFMRVPFLEFKAPGIPSGMETLKDTPAPRLLKTHLPLALLPQTLLDQKVKVVYVARNAKDVAVSYYHFYHMAKVHPEPGTWDSFLEKFMVGEVSYGSWYQHVQEWWELSRTHPVLYLFYEDMKENPKREIQKILEFVGRSLPEETVDFVVQHTSFKEMKKNPMTNYTTVPQEFMDHSISPFMRKGMAGDWKTTFTVAQNERFDADYAEKMAGCSLSFRSEL
modifications: co-expressed with E. coli cysDNCQ
On to B7, for which the Zosteric acid formed in the data set with pHCA [3] (induction 0.1 mM IPTG) was 0.09 mM. Moreover, the pHCA remaining in the data set on pHCA [3] (induction 0.1 mM IPTG) is recorded as 0.04 mM; in the data set with pHCA [3] (induction None), 0.10 mM.
